Data set [1] concerns the molecule itself. As to the kind of experiment: SEC; light (L) state: 8 or 50 µM protein illuminated 2 min with blue light, column under continuous LED irradiation; Superdex 75, 400 mM NaCl, 20 mM Tris-HCl pH 7.0, 25 ± 1 °C, 0.5 mL/min; monomer to dimer. For orientation: Size exclusion chromatography separates by hydrodynamic size, large species first.
Data set [2] concerns the molecule itself. As to the kind of experiment: SEC; dark (D) state: 8 or 50 µM protein incubated 20 min at 25 °C in the dark; Superdex 75 column, 400 mM NaCl, 20 mM Tris-HCl pH 7.0, 25 ± 1 °C, 0.5 mL/min; monomer to dimer.
Data set [3] concerns the molecule itself. The data set can be described thus: dynamic light scattering (DLS); light (L) state: immediately after 1 min of blue light, 30-60 µM protein, 25 °C, hydrodynamic radius extrapolated to 0 µM protein; monomer to dimer.
Data set [4] deals with the molecule itself. As to the kind of experiment: dynamic light scattering (DLS); dark (D) state: 30-60 µM protein, 25 °C, hydrodynamic radius extrapolated to 0 µM protein; monomer to dimer.

Substitutions are numbered along the chain they refer to. Numbers in names are those of the source.

Broadly, the stoichiometry N is the number of molecules, sites or subunits per partner or assembly.

B1: Photozipper (PZ), N-terminally truncated aureochrome-1 of Vaucheria frigida, wild type (domain or fragment, UniProt A8QW55 113-348, looked up)
chain: GSISSELTEAQKVERRERNREHAKRSRVRKKFLLESLQQSVNELNHENNSLKESIREHLGPRGDSLIAQSSPEADTLLTDNPSKANRILEDPDYSLVKALQMAQQNFVITDASLPDNPIVYASRGFLTLTGYSLDQILGRNCRFLQGPETDPRAVDKIRNAITKGVDTSVCLLNYRQDGTTFWNLFFVAGLRDSKGNIVNYVGVQSKVSEDYAKLLVNEQNIEYKGVRTSNMLRRK
notes: aureochrome-1 of Vaucheria frigida (VfAUREO1), G113-K348 with C162S and C182S, encoded by the synthetic gene opZL; holds the bZIP and LOV domains; in the light (L) state FMN forms a covalent adduct with a conserved cysteine; also called wtPZ; source: recombinant protein
As for B1, the binding result in data set [1] was “binds”.

B2: Photozipper (PZ) V316A mutant (domain or fragment, Vaucheria frigida, UniProt A8QW55 113-348, looked up)
chain: B1 chain with V204A
notes: aureochrome-1 of Vaucheria frigida (VfAUREO1), G113-K348 with C162S and C182S (opZL gene), plus V316A; also called β-sheet mutant
On to B2, for which the binding result in data set [2] is “binds”.

B3: Photozipper (PZ) L201A mutant (domain or fragment, Vaucheria frigida, UniProt A8QW55 113-348, looked up)
chain: B1 chain with L89A
notes: aureochrome-1 of Vaucheria frigida (VfAUREO1), G113-K348 with C162S and C182S (opZL gene), plus L201A; also called A'α mutant
On to B3, for which the binding result in data set [2] was “binds”.

B4: Photozipper (PZ) V314A mutant (domain or fragment, Vaucheria frigida, UniProt A8QW55 113-348, looked up)
chain: B1 chain with V202A
notes: aureochrome-1 of Vaucheria frigida (VfAUREO1), G113-K348 with C162S and C182S (opZL gene), plus V314A; also called β-sheet mutant
As for B4, the binding result in data set [1] is “binds”.

B5: Photozipper (PZ) F299V mutant (domain or fragment, Vaucheria frigida, UniProt A8QW55 113-348, looked up)
chain: B1 chain with F187V
notes: aureochrome-1 of Vaucheria frigida (VfAUREO1), G113-K348 with C162S and C182S (opZL gene), plus F299V; also called β-sheet mutant
Turning to B5, in data set [3], the binding result is reported as “binds”.

B6: Photozipper (PZ) L303A mutant (domain or fragment, Vaucheria frigida, UniProt A8QW55 113-348, looked up)
chain: B1 chain with L191A
notes: aureochrome-1 of Vaucheria frigida (VfAUREO1), G113-K348 with C162S and C182S (opZL gene), plus L303A; also called β-sheet mutant
With B6, the binding result in data set [3] was “binds”.

B7: Photozipper (PZ) L208A mutant (domain or fragment, Vaucheria frigida, UniProt A8QW55 113-348, looked up)
chain: B1 chain with L96A
notes: aureochrome-1 of Vaucheria frigida (VfAUREO1), G113-K348 with C162S and C182S (opZL gene), plus L208A; also called L208L (as printed once); A'α mutant
Consider B7, for which the binding result in data set [2] is “binds”.

B8: Photozipper (PZ) V314I mutant (domain or fragment, Vaucheria frigida, UniProt A8QW55 113-348, looked up)
chain: B1 chain with V202I
notes: aureochrome-1 of Vaucheria frigida (VfAUREO1), G113-K348 with C162S and C182S (opZL gene), plus V314I; also called β-sheet mutant
With B8, in data set [2], the “stoichiometry N” value worked out at 2.

B9: Photozipper (PZ) F219V mutant (domain or fragment, Vaucheria frigida, UniProt A8QW55 113-348, looked up)
chain: B1 chain with F107V
notes: aureochrome-1 of Vaucheria frigida (VfAUREO1), G113-K348 with C162S and C182S (opZL gene), plus F219V; also called β-sheet mutant
For B9, in data set [2], the “stoichiometry N” value came out at 2.

B10: Photozipper (PZ) L201A/L208A/L212A triple mutant (domain or fragment, Vaucheria frigida, UniProt A8QW55 113-348, looked up)
chain: B1 chain with L89A, L96A, L100A
notes: aureochrome-1 of Vaucheria frigida (VfAUREO1), G113-K348 with C162S and C182S (opZL gene), plus L201A, L208A and L212A; also called A'α mutant
In the case of B10, in data set [2], the binding result was “binds”.

B11: Photozipper (PZ) L212A mutant (domain or fragment, Vaucheria frigida, UniProt A8QW55 113-348, looked up)
chain: B1 chain with L100A
notes: aureochrome-1 of Vaucheria frigida (VfAUREO1), G113-K348 with C162S and C182S (opZL gene), plus L212A; also called A'α mutant
For B11, the binding result in data set [4] is on record as “binds”.

B12: Photozipper (PZ) N218A mutant (domain or fragment, Vaucheria frigida, UniProt A8QW55 113-348, looked up)
chain: B1 chain with N106A
notes: aureochrome-1 of Vaucheria frigida (VfAUREO1), G113-K348 with C162S and C182S (opZL gene), plus N218A; also called hinge mutant
In the case of B12, in data set [3], the binding result is recorded as “binds”.

B13: Photozipper (PZ) Q216A mutant (domain or fragment, Vaucheria frigida, UniProt A8QW55 113-348, looked up)
chain: B1 chain with Q104A
notes: aureochrome-1 of Vaucheria frigida (VfAUREO1), G113-K348 with C162S and C182S (opZL gene), plus Q216A; also called hinge mutant
For the protein B13, in data set [3], the binding result was “binds”.

B14: Photozipper (PZ) Q217A mutant (domain or fragment, Vaucheria frigida, UniProt A8QW55 113-348, looked up)
chain: B1 chain with Q105A
notes: aureochrome-1 of Vaucheria frigida (VfAUREO1), G113-K348 with C162S and C182S (opZL gene), plus Q217A; also called hinge mutant
As to B14, in data set [3], the binding result is “binds”.

The record behind these values is paper PMC8184817, “Transmission of light signals from the light-oxygen-voltage core via the hydrophobic region of the β-sheet surface in aureochrome-1” (Scientific Reports, 2021).
